Measurements: paper PMC11574045, “A cofactor-induced repressive type of transcription factor condensation can be induced by synthetic peptides to suppress tumorigenesis” (The EMBO Journal, 2024)

B1: UBTF (protein, UniProt P17480 1-764, looked up)
Nucleolar transcription …: MNGEADCPTDLEMAAPKGQDRWSQEDMLTLLECMKNNLPSNDSSKFKTTESHMDWEKVAFKDFSGDMCKLKWVEISNEVRKFRTLTELILDAQEHVKNPYKGKKLKKHPDFPKKPLTPYFRFFMEKRAKYAKLHPEMSNLDLTKILSKKYKELPEKKKMKYIQDFQREKQEFERNLARFREDHPDLIQNAKKSDIPEKPKTPQQLWYTHEKKVYLKVRPDATTKEVKDSLGKQWSQLSDKKRLKWIHKALEQRKEYEEIMRDYIQKHPELNISEEGITKSTLTKAERQLKDKFDGRPTKPPPNSYSLYCAELMANMKDVPSTERMVLCSQQWKLLSQKEKDAYHKKCDQKKKDYEVELLRFLESLPEEEQQRVLGEEKMLNINKKQATSPASKKPAQEGGKGGSEKPKRPVSAMFIFSEEKRRQLQEERPELSESELTRLLARMWNDLSEKKKAKYKAREAALKAQSERKPGGEREERGKLPESPKRAEEIWQQSVIGDYLARFKNDRVKALKAMEMTWNNMEKKEKLMWIKKAAEDQKRYERELSEMRAPPAATNSSKKMKFQGEPKKPPMNGYQKFSQELLSNGELNHLPLKERMVEIGSRWQRISQSQKEHYKKLAEEQQKQYKVHLDLWVKSLSPQDRAAYKEYISNKRKSMTKLRGPNPKSSRTTLQSKSESEEDDEEDEDDEDEDEEEEDDENGDSSEDGGDSSESSSEDESEDGDENEEDDEDEDDDEDDDEDEDNESEGSSSSSSSSGDSSDSDSN
B2: USP22 (protein, UniProt Q9UPT9 1-525, looked up)
Ubiquitin carboxyl-terminal …: MVSRPEPEGEAMDAELAVAPPGCSHLGSFKVDNWKQNLRAIYQCFVWSGTAEARKRKAKSCICHVCGVHLNRLHSCLYCVFFGCFTKKHIHEHAKAKRHNLAIDLMYGGIYCFLCQDYIYDKDMEIIAKEEQRKAWKMQGVGEKFSTWEPTKRELELLKHNPKRRKITSNCTIGLRGLINLGNTCFMNCIVQALTHTPLLRDFFLSDRHRCEMQSPSSCLVCEMSSLFQEFYSGHRSPHIPYKLLHLVWTHARHLAGYEQQDAHEFLIAALDVLHRHCKGDDNGKKANNPNHCNCIIDQIFTGGLQSDVTCQVCHGVSTTIDPFWDISLDLPGSSTPFWPLSPGSEGNVVNGESHVSGTTTLTDCLRRFTRPEHLGSSAKIKCSGCHSYQESTKQLTMKKLPIVACFHLKRFEHSAKLRRKITTYVSFPLELDMTPFMASSKESRMNGQYQQPTDSLNNDNKYSLFAVVNHQGTLESGHYTSFIRQHKDQWFKCDDAIITKASIKDVLDSEGYLLFYHKQFLEYE
B3: USP49 (protein, UniProt Q70CQ1 1-688, looked up)
Ubiquitin carboxyl-terminal …: MDRCKHVGRLRLAQDHSILNPQKWCCLECATTESVWACLKCSHVACGRYIEDHALKHFEETGHPLAMEVRDLYVFCYLCKDYVLNDNPEGDLKLLRSSLLAVRGQKQDTPVRRGRTLRSMASGEDVVLPQRAPQGQPQMLTALWYRRQRLLARTLRLWFEKSSRGQAKLEQRRQEEALERKKEEARRRRREVKRRLLEELASTPPRKSARLLLHTPRDAGPAASRPAALPTSRRVPAATLKLRRQPAMAPGVTGLRNLGNTCYMNSILQVLSHLQKFRECFLNLDPSKTEHLFPKATNGKTQLSGKPTNSSATELSLRNDRAEACEREGFCWNGRASISRSLELIQNKEPSSKHISLCRELHTLFRVMWSGKWALVSPFAMLHSVWSLIPAFRGYDQQDAQEFLCELLHKVQQELESEGTTRRILIPFSQRKLTKQVLKVVNTIFHGQLLSQVTCISCNYKSNTIEPFWDLSLEFPERYHCIEKGFVPLNQTECLLTEMLAKFTETEALEGRIYACDQCNSKRRKSNPKPLVLSEARKQLMIYRLPQVLRLHLKRFRWSGRNHREKIGVHVVFDQVLTMEPYCCRDMLSSLDKETFAYDLSAVVMHHGKGFGSGHYTAYCYNTEGGFWVHCNDSKLNVCSVEEVCKTQAYILFYTQRTVQGNARISETHLQAQVQSSNNDEGRPQTFS
B4: VAX2 (protein, UniProt Q9UIW0 1-290, looked up)
Ventral anterior homeobox 2: MGDGGAERDRGPARRAESGGGGGRCGDRSGAGDLRADGGGHSPTEVAGTSASSPAGSRESGADSDGQPGPGEADHCRRILVRDAKGTIREIVLPKGLDLDRPKRTRTSFTAEQLYRLEMEFQRCQYVVGRERTELARQLNLSETQVKVWFQNRRTKQKKDQSRDLEKRASSSASEAFATSNILRLLEQGRLLSVPRAPSLLALTPSLPGLPASHRGTSLGDPRNSSPRLNPLSSASASPPLPPPLPAVCFSSAPLLDLPAGYELGSSAFEPYSWLERKVGSASSCKKANT
B5: VENTX (protein, UniProt O95231 1-258, looked up)
Homeobox protein VENTX: MRLSSSPPRGPQQLSSFGSVDWLSQSSCSGPTHTPRPADFSLGSLPGPGQTSGAREPPQAVSIKEAAGSSNLPAPERTMAGLSKEPNTLRAPRVRTAFTMEQVRTLEGVFQHHQYLSPLERKRLAREMQLSEVQIKTWFQNRRMKHKRQMQDPQLHSPFSGSLHAPPAFYSTSSGLANGLQLLCPWAPLSGPQALMLPPGSFWGLCQVAQEALASAGASCCGQPLASHPPTPGRPSLGPALSTGPRGLCAMPQTGDAF
B6: C16orf5 (protein, UniProt Q9H305 1-208, looked up)
Cell death-inducing …: MSSEPPPPYPGGPTAPLLEEKSGAPPTPGRSSPAVMQPPPGMPLPPADIGPPPYEPPGHPMPQPGFIPPHMSADGTYMPPGFYPPPGPHPPMGYYPPGPYTPGPYPGPGGHTATVLVPSGAATTVTVLQGEIFEGAPVQTVCPHCQQAITTKISYEIGLMNFVLGFFCCFMGCDLGCCLIPCLINDFKDVTHTCPSCKAYIYTYKRLC
B7: WNT3A (protein, UniProt P56704 19-352, looked up)
Protein Wnt-3a: SYPIWWSLAVGPQYSSLGSQPILCASIPGLVPKQLRFCRNYVEIMPSVAEGIKIGIQECQHQFRGRRWNCTTVHDSLAIFGPVLDKATRESAFVHAIASAGVAFAVTRSCAEGTAAICGCSSRHQGSPGKGWKWGGCSEDIEFGGMVSREFADARENRPDARSAMNRHNNEAGRQAIASHMHLKCKCHGLSGSCEVKTCWWSQPDFRAIGDFLKDKYDSASEMVVEKHRESRGWVETLRPRYTYFKVPTERDLVYYEASPNFCEPNPETGSFGTRDRTCNVSSHGIDGCDLLCCGRGHNARAERRREKCRCVFHWCCYVSCQECTRVYDVHTCK
B8: XBP1 (protein, UniProt P17861 1-261, looked up)
X-box-binding protein 1: MVVVAAAPNPADGTPKVLLLSGQPASAAGAPAGQALPLMVPAQRGASPEAASGGLPQARKRQRLTHLSPEEKALRRKLKNRVAAQTARDRKKARMSELEQQVVDLEEENQKLLLENQLLREKTHGLVVENQELRQRLGMDALVAEEEAEAKGNEVRPVAGSAESAALRLRAPLQQVQAQLSPLQNISPWILAVLTLQIQSLISCWAFWTTWTQSCSSNALPQSLPAWRSSQRSTQKDPVPYQPPFLCQWGRHQPSWKPLMN
B9: YAF2 (protein, UniProt Q8IY57 1-180, looked up)
YY1-associated factor 2: MGDKKSPTRPKRQPKPSSDEGYWDCSVCTFRNSAEAFKCMMCDVRKGTSTRKPRPVSQLVAQQVTQQFVPPTQSKKEKKDKVEKEKSEKETTSKKNSHKKTRPRLKNVDRSSAQHLEVTVGDLTVIITDFKEKTKSPPASSAASADQHSQSGSSSDNTERGMSRSSSPRGEASSLNGESH
B10: ZBED2 (protein, UniProt Q9BTP6 1-218, looked up)
Zinc finger BED …: MMRREDEEEEGTMMKAKGDLEMKEEEEISETGELVGPFVSAMPTPMPHNKGTRFSEAWEYFHLAPARAGHHPNQYATCRLCGRQVSRGPGVNVGTTALWKHLKSMHREELEKSGHGQAGQRQDPRPHGPQLPTGIEGNWGRLLEQVGTMALWASQREKEVLRRERAVEWRERAVEKRERALEEVERAILEMKWKVRAEKEACQREKELPAAVHPFHFV
B11: C1D (protein, UniProt Q13901 1-141, looked up)
Nuclear nucleic acid-binding …: MAGEEINEDYPVEIHEYLSAFENSIGAVDEMLKTMMSVSRNELLQKLDPLEQAKVDLVSAYTLNSMFWVYLATQGVNPKEHPVKQELERIRVYMNRVKEITDKKKAGKLDRGAASRFVKNALWEPKSKNASKVANKGKSKS
B12: ZBTB17 (protein, UniProt Q13105 1-803, looked up)
Zinc finger and BTB …: MDFPQHSQHVLEQLNQQRQLGLLCDCTFVVDGVHFKAHKAVLAACSEYFKMLFVDQKDVVHLDISNAAGLGQVLEFMYTAKLSLSPENVDDVLAVATFLQMQDIITACHALKSLAEPATSPGGNAEALATEGGDKRAKEEKVATSTLSRLEQAGRSTPIGPSRDLKEERGGQAQSAASGAEQTEKADAPREPPPVELKPDPTSGMAAAEAEAALSESSEQEMEVEPARKGEEEQKEQEEQEEEGAGPAEVKEEGSQLENGEAPEENENEESAGTDSGQELGSEARGLRSGTYGDRTESKAYGSVIHKCEDCGKEFTHTGNFKRHIRIHTGEKPFSCRECSKAFSDPAACKAHEKTHSPLKPYGCEECGKSYRLISLLNLHKKRHSGEARYRCEDCGKLFTTSGNLKRHQLVHSGEKPYQCDYCGRSFSDPTSKMRHLETHDTDKEHKCPHCDKKFNQVGNLKAHLKIHIADGPLKCRECGKQFTTSGNLKRHLRIHSGEKPYVCIHCQRQFADPGALQRHVRIHTGEKPCQCVMCGKAFTQASSLIAHVRQHTGEKPYVCERCGKRFVQSSQLANHIRHHDNIRPHKCSVCSKAFVNVGDLSKHIIIHTGEKPYLCDKCGRGFNRVDNLRSHVKTVHQGKAGIKILEPEEGSEVSVVTVDDMVTLATEALAATAVTQLTVVPVGAAVTADETEVLKAEISKAVKQVQEEDPNTHILYACDSCGDKFLDANSLAQHVRIHTAQALVMFQTDADFYQQYGPGGTWPAGQVLQAGELVFRPRDGAEGQPALAETSPTAPECPPPAE

test system: HEK293FT cells transfected with TF library; assay: Screening of TF condensates based on fluorescent puncta; format: cell-based; settings: Figure 1B numerical data; TF library screen, one value per transcriptional factor
In short: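 HEK293FT cells were reverse-transfected with Flag- or GAL4-tagged TF plasmids (1.6 μg/ml, PEI). After 60 h, cells were cultured 12 h with or without glucose, then fixed and immunostained with anti-Flag or anti-GAL4 and Alexa 488 secondaries. Fluorescent puncta were imaged over fifty random fields per well by high-content imaging.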

Compared with B1, B2 is higher in “Z score of condensed fraction” value: -0.959 for the first, 0.5078 for the second.

Going from B3 to B4, the “Z score of condensed fraction” value falls from -0.174 to -0.9394.

First: B5
Second: B6
The “Z score of condensed fraction” value of the first is lower: -0.4099 for the first, 3.145 for the second.

Going from B7 to B8, the “Z score of condensed fraction” value rises from -0.5314 to -0.3977.

Compared with B9, B10 is lower in “Z score of condensed fraction” value: 1.84 for the first, 0.7838 for the second.

First: B11
Second: B12
The “Z score of condensed fraction” value of the first is lower: -0.3287 for the first, -0.2141 for the second.
